Assay results published in the Human Domainome abundance scans (Beltran et al. 2025).

B1: Receptor-interacting serine/threonine-protein kinase 2, residues 438 to 518; numbered along this chain, O43353 (parent)
chain: QWIQSKREDIVNQMTEACLNQSLDALLSRDLIMKEDYELVSTKPTRTSKVRQLLDTTDIQGEEFAKVIVQKLKDNKQMGLQ
B2: Advillin, residues 785 to 819; numbered along this chain, O75366 (parent)
chain: LSEQDFVSVFGITRGQFAALPGWKQLQMKKEKGLF

Variants of: B1
Experiment: abundance fitness (aPCA) (normalised: wild type 0, dead -1); higher = more abundant; growth selection in yeast, the domain comes from the species named
Details: Homo sapiens

Abundance fitness of substitutions, site by site:
E38: N -0.463; W -0.12
S41: Q 0.139

Variants of: B2
Experiment: as above
Details: Homo sapiens

Abundance fitness of substitutions, site by site:
F6: C 0.06; I -0.162; D -0.831; E -0.906; K -0.514; H -0.87; A -1.28; Y -0.224; P -0.461; Q -0.402; W -0.186; V -1.19; S -0.488; N -0.928; G -1.08; T -0.183; R -0.468
L1: G -0.051; S -0.135; C -0.279; A -0.322; E 0.694; N -0.078; K -0.266; R -0.156; W -0.079
G11: P -0.797; V -0.537; T -0.547; L -1.05; F 0.179; M -0.986; R -0.513; S -0.353; A -0.485; K -0.453; D -0.647; E -0.65; W -0.846
S8: P -0.506; Y -0.84; R 0.023; A 0.052; E 0.119; G -0.026; D -0.081; F -0.476; W -0.439; V -0.117; T -0.024; K 0.156; N -0.329; L -0.238; M 0.003
Q4: E 0.018; I 0.237; F -0.063; D -0.592; V 0.002; P -0.076; A -0.064; S 0.019; L 0.016; N -0.317; G -0.001; T -0.202; R -0.11; H -0.277; C -0.846; W -0.267; K 0
D5: Q -0.204; T -0.255; L -0.209; C -1.17; G -0.188; M -0.332; W -1; S -0.031; Y -0.782; R -0.188; K -0.146; P -0.651; V -0.521; E -0.073
F10: H -0.932; A -0.398; D -0.316; Y -0.016; T -0.367; L -0.392; C -0.31; M -0.305; V -0.332; P -0.726; N -0.2; G -0.27; K -0.319; S -0.383; E -0.285; Q -0.59; W -0.274
S2: E -0.085; C -0.175; L -0.123; G -0.078; P -0.584; V -0.322; Q -0.416; D 0.311; K -0.127; T -0.289; M -0.514; Y -0.505; W -0.305; R -0.282
V9: W -0.684; P -0.632; T -0.141; M -0.184; C -0.527; S -0.456; Y -0.156; L -0.131; K -0.04; F -0.422; H 0.018; R -0.162; E -0.149; G -0.286; A -0.222; D -0.443
E3: F -0.039; P -0.268; Y -0.543; L -0.304; M -0.461; W -0.4; G -0.366; T -0.092; R -0.476; N 0.165; I -0.175; K -0.409; S -0.183; A -0.258; Q -0.225; H -0.323; D 0.103; C -0.421
V7: G -0.306; W -0.343; M -0.291; L 0.04; D -0.085; E 0.105; Q 0.004; F -0.038; T -0.115; I -0.028; A -0.149; R -0.139; S 0.071; K -0.384
